Paper doi:10.1101/2022.05.30.493956 (bioRxiv, 2022)
Substitutions are numbered along the chain they refer to. In names and notes the source's numbering stands.

B1: Full length human lamin A W514R (natural protein, UniProt P02545 1-664, looked up)
chain: METPSQRRATRSGAQASSTPLSPTRITRLQEKEDLQELNDRLAVYIDRVRSLETENAGLRLRITESEEVVSREVSGIKAAYEAELGDARKTLDSVAKERARLQLELSKVREEFKELKARNTKKEGDLIAAQARLKDLEALLNSKEAALSTALSEKRTLEGELHDLRGQVAKLEAALGEAKKQLQDEMLRRVDAENRLQTMKEELDFQKNIYSEELRETKRRHETRLVEIDNGKQREFESRLADALQELRAQHEDQVEQYKKELEKTYSAKLDNARQSAERNSNLVGAAHEELQQSRIRIDSLSAQLSQLQKQLAAKEAKLRDLEDSLARERDTSRRLLAEKEREMAEMRARMQQQLDEYQELLDIKLALDMEIHAYRKLLEGEEERLRLSPSPTSQRSRGRASSHSSQTQGGGSVTKKRKLESTESRSSFSQHARTSGRVAVEEVDEEGKFVRLRNKSNEDQSMGNWQIKRQNGDDPLLTYRFPPKFTLKAGQVVTIWAAGAGATHSPPTDLVRKAQNTWGCGNSLRTALINSTGEEVAMRKLVRSVTVVEDDEDEDGDDLLHHHHGSHCSSSGDPAEYNLRSRTVLCGTCGQPADKASASGSGAQVGGPISSGSSASSVTVTRSYRSVGGSGGGSFGDNLVTRSYLLGNSSPRTQSPQNCSIM
B2: Full length human lamin A protein/pre-lamin A (664 amino acids), wild type (natural protein, UniProt P02545 1-664, looked up)
chain: B1 chain with R514W

Columns and labels:
[1] = biological target: the molecule itself; test: far-UV circular dichroism
[2] = biological target: the molecule itself; test: scanning electron microscopy of in vitro assembled purified protein

Protein | binding result [1] | binding result [2]
B1 | binds | 
B2 |  | binds
